T1: human CD70 (human, UniProt P32970 1-193)
T1 construct: Endogenous CD70 in FFPE cells and tissue sections, detected by IHC; also called CD70 antigen
T1 sequence: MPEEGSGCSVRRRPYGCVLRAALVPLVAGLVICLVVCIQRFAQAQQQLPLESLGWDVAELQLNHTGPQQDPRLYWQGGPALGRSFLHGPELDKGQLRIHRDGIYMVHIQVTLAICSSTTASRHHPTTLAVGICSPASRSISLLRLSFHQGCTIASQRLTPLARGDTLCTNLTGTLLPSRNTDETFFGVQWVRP


What was measured:
human CD70 [1] = target: T1, human CD70; experiment: IHC Leica BOND, ER2, FFPE ACHN cells, 5 µg/mL
Protocol: (§1) The following IHC evaluation was performed using a Leica BOND™ RX autostainer and BOND™ Polymer Refine Detection kit. These antibodies were tested at 5 μg/mL or 8 μg/mL concentration on a panel of CD70 positive cell line controls and a renal clear cell carcinoma tissue microarray (RCC TMA). All incubation steps were performed at room temperature with wash cycles in between each step unless otherwise stated. Briefly, pretreatment of FFPE slides was performed using the Bake and Dewax function. It was followed by a HIER step with Epitope Retrieval solution 2 (ER2) for 20 minutes at 100° C. Next, tissues were incubated with primary antibody for 60 minutes, followed by incubation with post primary and then polymer reagents for 15 minutes each. The antibody-antigen binding was visualized by brown DAB Refine stain for 10 minutes and counter-stained blue with Hematoxylin for 5 minutes. […] Upon completion of IHC staining experiment, stained tissues were scan using a Pannoramic MIDI II brightfield whole slide scanner and staining was visualized using CaseViewer software.

human CD70 [2] = target: T1, human CD70; experiment: IHC Leica BOND, ER2, FFPE HH cells, 5 µg/mL
Protocol: as §1

human CD70 [3] = target: T1, human CD70; experiment: IHC Leica BOND, ER2, FFPE ACHN cells, 8 µg/mL
Protocol: as §1

Row | Binder | binding result (human CD70 [1]) | other results
1 | 4E6G9 (antibody, V domains shown, Mouse IgG1, Kappa; Only variable domains are printed; also called 4E6G9 antibody (Ms IgG1, kappa); recombinant antibody 4E6G9) VH: QIQLVQSGPELKKAGETVKISCKASGYTFAAYSMHWVKQAPGKGLKWMGWINTETGEPTYADDFKGRFAFSLETSASTAYLQINNLKNEDTATYFCTRDDYDGGRFSYWYFAVWGAGTTVTVSS VL: DIQMTQSPSSLSASLGGKVTITCKASQDINKYIAWYQHRPGKGPRLLIRYTSTLQPGIPSRFSGSGSGRDYSFSINNLEPEDIATYYCLQYDNLLTFGGGTKLEIK | binds | –
2 | 16D7C8 (antibody, IgG3, V domains shown, Mouse hybridoma antibody, IgG3, Kappa; Only variable domains are printed) VH: QVQLQQSGPELVKPGASVRISCKASGYTFTSFYIHWVKQRPGQGLEWIGWISPINININYNEKFKGKATLTADKSSSTVYMQLSSLTSEDSAVYFCEGTSENFDVWGAGTTVTVSS VL: DVLMTQIPLSLPVSLGDQASISCRSTQNIVHSNGNTYLEWYLQKPGQSPKLLIYKVSNRFSGVPDRFRGSGSGTEFTLKITRVEADDLGVYYCFQGSHVPFTFGAGTKLELK | binds | –
3 | 3H11D12E7 (antibody, V domains shown, Mouse IgG1, Kappa; Only variable domains are printed; also called recombinantly expressed 3H11D12E7) VH: QIQLVQSGPELKKPGETVKISCKASGYTFTDYSMHWVKQAPGKGLKWMGWINTETGEPTYADDFKGRFAFSLETSASTAYLQINNLKNDDTATYFCARSFYRYDWYFDVWGAGTTVTVSS VL: QIVLTQSPAIMSASPGEKVTITCSASSSVSFMHWFQQKPGTSPKLWIYSTSNLASGVPARFSGSGSGTSYSLTISRMEAEDAATYYCQQRTSFPPTFGGGTNLEIK | – | binding result (human CD70 [2]): binds
4 | 11G12B6 (antibody, V domains shown, Mouse hybridoma antibody, IgG1, Kappa; Only variable domains are printed) VH: QVTLKESGPGILKPSQTLSLTCSFSGFSLSTSGLAVGWIRQPSGKGLEWLSHIWWNDDKYYNPSLKNQLTISKDTSRNQVFLKIISVDTADTATYYCSAYFGGKNYWGQGTALTVSS VL: DIVMTQSPSSLTVTAGEKVTMSCKSSQSLLNSGNQKNYLTWYQQKPGQPPKLLVYWASTRESGVPDRFTGSGSGTDFTLTISTVQAEDLAVYYCQNDYSYPLTFGAGTKLELK | – | binding result (human CD70 [3]): binds
5 | 18F8A8 (antibody, IgG1, V domains shown, Mouse hybridoma antibody, IgG1, Kappa; Only variable domains are printed) VH: QVTLKESGPGILQPSQTLSLTCSFSGFSLSTSNMGVAWIRQPLGKGLEWLLYILWNDTKYYNPALKSRLSISKDTYNNQVFLKIVNVDTADTATYYCARIRRDYALDYWGQGTSVTVSS VL: DIVMSQSPSSLAVSVGEKVTMNCKSSQSLLYSNNQKNYLAWYQQKPGQSPKLLIYWASTRESGVPDRFTGSGSGTDFTLTISSVKAEDLAVYYCQQYYIYPLAFGGGTKLEIK | binds | –
6 | 19H7E4 (antibody, IgG1, V domains shown, Mouse hybridoma antibody, IgG1, Kappa; Only variable domains are printed) VH: QVTLKESGPGILQPSQTLSLTCSFSGFSLSTSNVGVGWIRQPSGKGLEWLLHILWNDGKYYNPALKSRLTISKDTSTNQVFLKIADVDTADSATYYCARLRRDYGMDYWGQGTSVTVSS VL: DIVMSQSPSSLAVSVGEKVTMSCKSSQSLLYSYNQKNYLAWYQQKPGQSPKLLIYWASTRESGVPDRFTGSGSGTDFTLTISSVKAEDLAVYYCQQYYTYPYAFGGGTKLEIK | binds | –

Source: US20210380707A1 (published 2021)
